Consider three molecules from US6180362A, “Peptides which inhibit ras protein activity, their preparation and use” (Rhone-Poulenc Rorer S.A., priority 1992, dated 2001).

Assay [1] relates to maturation of Xenopus eggs induced by p21 ras Lys12. As to the kind of experiment: Maturation of Xenopus eggs (oocytes) induced by ras, % GVBD. It counts as cell-based, Xenopus laevis. To be noted: microinjection into oocyte cytoplasm together with ras p21 protein; GVBD after 18 hours. As to the method: Xenopus laevis frogs were obtained from CNRS (Montpellier, France). The frogs are anaesthetized in ice-water and fragments of the ovaries are removed surgically and transferred to a modified Barth medium (Hirai et al., Dev. Biol. 100 (1984) 214). The stage VI oocytes are recovered by agitating the oocyte aggregates for 2 hours at ambient temperature in the presence of 2 mg/ml of collagenase (Sigma). For analysis of the maturation induced by ras, 40 nl of the protein in modified Barth medium are introduced into the cytoplasm of the oocytes by microinjection, either alone or in the presence of various concentrations of anti-GAP antibodies. For analysis of the maturation induced by hormones, the oocytes are incubated in the presence of insulin (10 μg/ml) and zinc chloride (10 μM) (bovine pancreatic insulin, Sigma) or progesterone (1 μM). The oocytes are kept at 20° C. in modified Barth medium, and the […] germinal vesicle breakdown (GVBD) is determined after incubation for 18 hours by dissection of the oocytes, which have been fixed beforehand in the presence of 5% of trichloroacetic acid. The results are expressed by the % GVBD on groups of oocytes.
E.3.1. The biological activity of the peptides according to the invention was studied by measuring their effect on the maturation of Xenopus eggs induced by p21 ras Lys12, by insulin or by progesterone.
The protocol used is the same as that described in Example E.1.1. above. The activity is measured by microinjection into the cytoplasm of the oocytes of 40 nl of the ras p21 protein in modified Barth medium, either alone or in the presence of various peptides according to the invention in varying concentrations. The results are expressed by the % of GVBD over the groups of oocytes. The results are shown on FIG. 3.

The test system of assay [2] is NIH 3T3 cells cotransfected with oncogenic Ha-ras Val12. As to the kind of experiment: Formation of foci of transformed cells. Format: cell-based. To be noted: foci formation test, result in words. As to the method:
The activity of P9 was then evaluated in a test for formation of foci of transformed cells. The cancerous cells in fact have the property of forming transformation foci, and in particular fibroblasts NIH 3T3 expressing an oncogenic ras. The cells NIH 3T3 were cultured in DMEM medium (Dulbecco's modified Eagle medium) comprising 10% of foetal calf serum at 37° C. in a humid environment containing 5% of CO2. The plasmids pSV2-GAP and pSV2-P9 were constructed by inserting the nucleotide sequences coding for GAP and for P9 (SEQ ID No. 4) into the vector SV2. The cells NIH 3T3 were cotransfected with an oncogenic ras Ha-ras Va112, the plasmide indicated in the table, and a 10-fold excess of the gene having resistance to neomycin by the technique of transfection with cationic lipids (Schweighoffer et al., Science 256 (1992) 825). The same amount of total DNA is transfected for each dish. 24 hours after transfection, the transfected cells originating from each Petri dish (100 mm) are divided in a ratio of 1 to 10 and cultured in the same medium but in the presence of G418 (Gibco/BRL) in an amount of 0.4 mg/ml of medium. The number of transformation foci obtained per μg of transfected DNA is compatibilized after culture for 14 days. They represent the mean of four independent tests.

In assay [3] the target is T1, GAP-p21 interaction (Ha-ras p21-GTP and GAP) (Homo sapiens, UniProt P20936).
T1 construct: GST (glutathione S-transferase) (N); made in house; host or cells: E. coli (crude cytosol for GAP)
T1 sequence (P20936 1-1047): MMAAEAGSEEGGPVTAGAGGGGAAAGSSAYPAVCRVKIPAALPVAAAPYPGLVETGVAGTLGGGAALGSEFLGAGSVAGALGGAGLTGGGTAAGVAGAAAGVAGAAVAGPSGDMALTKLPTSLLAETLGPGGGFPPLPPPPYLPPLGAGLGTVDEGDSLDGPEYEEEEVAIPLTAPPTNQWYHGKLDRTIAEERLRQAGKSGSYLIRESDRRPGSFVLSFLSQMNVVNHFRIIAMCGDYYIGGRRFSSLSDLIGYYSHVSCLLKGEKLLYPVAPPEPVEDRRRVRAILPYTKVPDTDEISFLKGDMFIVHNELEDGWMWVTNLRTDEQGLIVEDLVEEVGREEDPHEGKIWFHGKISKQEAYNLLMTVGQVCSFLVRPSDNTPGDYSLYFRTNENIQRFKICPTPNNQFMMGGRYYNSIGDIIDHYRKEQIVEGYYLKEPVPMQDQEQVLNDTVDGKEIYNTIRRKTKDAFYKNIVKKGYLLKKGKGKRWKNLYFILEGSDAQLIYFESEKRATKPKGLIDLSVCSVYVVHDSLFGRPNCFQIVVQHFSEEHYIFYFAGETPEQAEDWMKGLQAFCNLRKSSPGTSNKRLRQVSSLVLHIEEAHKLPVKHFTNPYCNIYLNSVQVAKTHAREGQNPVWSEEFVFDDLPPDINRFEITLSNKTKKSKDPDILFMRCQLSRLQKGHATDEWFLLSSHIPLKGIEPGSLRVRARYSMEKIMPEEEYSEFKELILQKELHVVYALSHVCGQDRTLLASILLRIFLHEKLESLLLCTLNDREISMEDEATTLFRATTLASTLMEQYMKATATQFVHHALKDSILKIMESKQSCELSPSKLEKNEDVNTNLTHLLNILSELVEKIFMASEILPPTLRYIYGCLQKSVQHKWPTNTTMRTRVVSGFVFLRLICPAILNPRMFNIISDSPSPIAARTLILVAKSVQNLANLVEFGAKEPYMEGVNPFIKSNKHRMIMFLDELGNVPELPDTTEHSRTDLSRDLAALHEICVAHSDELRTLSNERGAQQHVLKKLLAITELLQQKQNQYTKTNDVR
As to the kind of experiment: GAP-stimulated GTPase reaction of Ha-ras p21-GTP (GAP-p21 interaction). It counts as biochemical. As to the method: E.1.2. Absence of an effect of the Ac200 antibody on the GAP-p21 interaction The interaction between GAP and the complex p21-GTP is determined in accordance with the following protocol. The normal protein Ha-ras p21 (Rey et al., Mol. Cell. Biol. 9 (1989) 3904) is equilibrated with an excess of (γ-^32 P) GTP (3000 Ci/mmol, Dupont, NEN Research Products, Boston, Mass.) in a buffer of Tris-HCl 20 mM (pH 7.5), 100 mM (NH4)2 SO4, 10 mM dithiothreitol, 1 mM MgCl2 and 50 mg/ml of bovine serum albumin for 30 minutes at 30° C. The incubation is stopped by applying the cooled solution to a PD10 column (Pharmacia) equilibrated by a buffer of Tris-HCl 20 mM (pH 7.5), 10 mM dithiothreitol, 10 mM MgCl2 and 1 mM phenylmethylsulphonyl fluoride, to eliminate the free nucleotides. The GTPase reaction is a variant of that described by Cassel and Selinger (Biochim. Biophys. Acta 452 (1976) 538). The reaction is started by addition of 10 μl (15 μg) of cytosol obtained by sonic treatment of strains of E. coli which express GAP (cf. Example E.2.1. below for the production of GAP) to 1 pmol of Ha-ras p21-(g^-32 P) GTP in the buffer Tris-HCl 20 mM (pH 7.5), NaCl 100 mM, dithiothreitol 10 mM, MgCl2 5 mM, GTP 100 μM and BSA 50 μg/ml, to obtain a final volume of 50 μl. […] After centrifugation at 1800 g, the radioactivity is measured in samples of 200 μl of the supernatant.

B1: P9: Peptide SEQ ID No. 4, purified as GST fusion protein and separated from GST by thrombin cleavage (protein)
chain: GGGFPPLPPPPYLPPLGAGLGTVDEGDSLDGPEYEEEEVAIPLTAPPTNQWYHGKLDRTIAEERLRQAGKSGSYLIRESDRRPGSFVLSFLSQMNVVNHFRIIAMCGDYYIGGRRFSSLSDLIGYYSHVSCLLKGEKLLYPVAPPEPVEDRRRVRAILPYTKVPDTDEISFLKGDMFIVHNELEDGWMWVTNLRTDEQGLIVEDLVEEVGREEDPHEGKIWFHGKISKQEAYNLLMTVGQVCSFLVRPSDNTPGDYSLYFRTNENIQRFKICPTPNNQFMMGGRYYNSIGDIIDHYRKEQIVEGYYLKEPVPMQDQEQVLNDTVDGKEIYNTIRRKTKDAFYKNIVKKGYLLKKGKGKRWKNLYFILEGSDAQLIYFESEKRATKPKGLIDLSVCSVYVVHDSLFGRPNCFQIVVQHFSEEHYIFYFAGETPEQAEDWMKGLQAFCNLRKSSPGTSNKRLRQVSSLVLHIEEAHKLPVKHFTNPYCNIYLNSVQVAKTHAREGQNPVWSEEFVFDD
Turning to B1, in assay [1], the “Inhibition of the transformation activity of the ras protein (maturation of Xenopus eggs, % GVBD)” value is reported as “completely blocks maturation of ovocytes”. In assay [2], the “Reduction of the transforming power of an oncogenic ras gene” value is “capable of very greatly reducing the transforming power of an oncogenic ras gene”.

B2: [768-860] PLCγ: fragment of identical length prepared by the same techniques from type γ human phospholipase C (protein, UniProt P19174 768-860, looked up, fragment)
chain: EPDYGALYEGRNPGFYVEANPMPTFKCAVKALFDYKAQREDELTFIKSAIIQNVEKQEGGWWRGDYGGKKQLWFPSNYVEEMVNPVALEPERE
With B2, the “Inhibition of the transformation activity of the ras protein (maturation of Xenopus eggs, % GVBD)” value in assay [1] was “does not have the activity of the peptide according to the invention”.

B3: [275-351] GAP: fragment of the protein GAP holding the effector region, about residues 275 to 350; peptide SEQ ID No. 2 (protein)
chain: APPEPVEDRRRVRAILPYTKVPDTDEISFLKGDMFIVHNELEDGWMWVTNLRTDEQGLIVEDLVEEVGREEDPHEGKI
B3: the “Relative GAP activity” value in assay [3] (None = 100, GTPase reaction 3 minutes at 30° C., 1 pmol Ha-ras p21-GTP, E. coli cytosol expressing GAP) is on record as 100. Besides, in assay [3] (same GTPase test, result in words), the “Effect on the GAP-p21 interaction” value was “does not modify the functional interaction of GAP-p21”. The “Inhibition of the transformation activity of the ras protein (maturation of Xenopus eggs, % GVBD)” value in assay [1] is recorded as “capable of inhibiting the transformation activity of the ras protein”.
